Source: patent US8173771B2, “Humanin receptor or humanin-like polypeptide receptor” (Keio Univeristy, priority 2005, dated 2012)
Blank lines part the entries; values can stand above or below the molecule they belong to.

Experiments:
[1] = target: T1, HN receptor (HNR; CNTF-R/WSX-1/gp130) on F11 cells (Mus musculus, UniProt O70394+O88507); experiment: Immunofluorescence-based binding assay (2): biotin-HN / biotin-HNG binding to F11 cells; conditions: biotin-HN; F11 cells with endogenous HNR or transfected with CNTF-R/WSX-1/gp130
T1 construct: endogenous in cells; host or cells: F11 neurohybrid cells
T1 sequence (O70394 25-623): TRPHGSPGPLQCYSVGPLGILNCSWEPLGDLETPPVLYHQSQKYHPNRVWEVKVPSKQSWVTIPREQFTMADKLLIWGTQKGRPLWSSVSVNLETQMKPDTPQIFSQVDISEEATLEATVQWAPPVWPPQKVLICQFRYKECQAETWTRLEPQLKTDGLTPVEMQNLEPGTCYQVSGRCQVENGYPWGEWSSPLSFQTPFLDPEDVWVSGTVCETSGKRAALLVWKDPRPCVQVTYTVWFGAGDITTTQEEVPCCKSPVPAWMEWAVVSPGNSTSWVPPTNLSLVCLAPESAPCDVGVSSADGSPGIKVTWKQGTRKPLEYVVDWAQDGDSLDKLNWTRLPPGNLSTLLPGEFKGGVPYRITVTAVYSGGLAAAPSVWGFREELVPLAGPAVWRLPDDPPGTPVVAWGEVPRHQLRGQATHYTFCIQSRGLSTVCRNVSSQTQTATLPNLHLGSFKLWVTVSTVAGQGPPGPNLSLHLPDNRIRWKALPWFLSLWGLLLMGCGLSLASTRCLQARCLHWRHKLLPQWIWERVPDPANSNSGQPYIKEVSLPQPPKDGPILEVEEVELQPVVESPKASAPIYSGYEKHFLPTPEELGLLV
T1 sequence (O88507 23-342): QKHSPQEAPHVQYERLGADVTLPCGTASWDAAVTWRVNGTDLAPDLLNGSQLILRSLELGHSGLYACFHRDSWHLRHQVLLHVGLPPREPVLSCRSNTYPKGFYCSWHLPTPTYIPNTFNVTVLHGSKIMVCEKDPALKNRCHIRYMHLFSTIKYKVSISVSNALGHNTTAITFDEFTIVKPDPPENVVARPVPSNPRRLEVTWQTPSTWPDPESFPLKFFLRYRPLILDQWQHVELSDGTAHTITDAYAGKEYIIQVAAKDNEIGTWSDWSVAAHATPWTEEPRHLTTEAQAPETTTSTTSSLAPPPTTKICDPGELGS
T1 sequence (Q00560 23-917 partner): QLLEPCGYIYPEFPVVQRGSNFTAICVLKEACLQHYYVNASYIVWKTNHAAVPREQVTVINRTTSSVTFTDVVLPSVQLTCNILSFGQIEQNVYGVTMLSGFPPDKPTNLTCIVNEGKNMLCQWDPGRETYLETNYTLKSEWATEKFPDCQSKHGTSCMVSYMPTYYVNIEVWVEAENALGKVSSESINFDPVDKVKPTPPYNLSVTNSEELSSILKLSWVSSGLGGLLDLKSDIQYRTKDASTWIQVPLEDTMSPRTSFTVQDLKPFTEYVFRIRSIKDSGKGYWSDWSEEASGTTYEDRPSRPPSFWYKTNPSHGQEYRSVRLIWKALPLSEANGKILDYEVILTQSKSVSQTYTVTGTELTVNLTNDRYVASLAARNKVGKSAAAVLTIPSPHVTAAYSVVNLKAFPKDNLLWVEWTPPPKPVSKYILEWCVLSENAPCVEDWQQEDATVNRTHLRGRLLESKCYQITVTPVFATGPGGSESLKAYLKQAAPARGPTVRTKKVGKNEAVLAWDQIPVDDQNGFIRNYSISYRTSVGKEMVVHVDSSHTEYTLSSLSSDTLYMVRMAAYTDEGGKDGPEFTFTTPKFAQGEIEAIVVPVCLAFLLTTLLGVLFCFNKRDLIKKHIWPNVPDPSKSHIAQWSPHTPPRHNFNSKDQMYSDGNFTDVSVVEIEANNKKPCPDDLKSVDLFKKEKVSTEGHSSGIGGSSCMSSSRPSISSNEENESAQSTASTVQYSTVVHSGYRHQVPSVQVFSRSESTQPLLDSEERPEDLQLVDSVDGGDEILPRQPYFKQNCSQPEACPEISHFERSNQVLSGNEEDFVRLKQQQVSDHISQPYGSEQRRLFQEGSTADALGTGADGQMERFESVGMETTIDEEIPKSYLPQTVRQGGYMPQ
Experimental: A) F11 cells were seeded on 96-well plates coated with poly-L-lysine (7×10^3 cells/well). An indicated amount of biotin-HN or biotin-HNG was added to the cells with or without 10 μM of unlabelled HNG or HNA, followed by a binding assay based on immunofluorescence reaction (2) (left panels). On the other hand, F11 cells were transfected with 0.5 μg of pcDNA3.1/GS-human CNTF-R, pEF1/MycHis-human WSX-1, and 1.0 μg of pCAG-human gp130. At 24 hrs after the transfection, the cells were re-seeded on 96-well plates coated with poly-L-lysine (7×10^3 cells/well). After 36 hrs the re-seeding, an indicated amount of biotin-HN or biotin-HNG was added to the cells with or without 10 μM of unlabeled HNG or HNA, followed by a binding assay based on immunofluorescence reaction (2) (right panels).
B) F11 cells were transfected with 0.5 μg of pRNA-U1.6/Shuttle vector, pRNA-U6.1/Shuttle-WSX-1 siRNA, pRNA-U6.1/Shuttle-CNTF-R siRNA, both pRNA-U6.1/Shuttle-WSX-1 siRNA and pRNA-U6.1/Shuttle-CNTF-R siRNA (0.5 μg each), pRNA-U6.1/Shuttle-FPR2 siRNA or pRNA-U6.1/Shuttle-LIFR siRNA. The total amount of vectors was adjusted to be 1.0 μg by including a backbone vector. At 24 hrs after the transfection, an indicated amount of biotin-HNG was added with or without unlabeled HNG, followed by a binding assay based on immunofluorescence reaction (2) at 72 hrs after the transfection.
E) F11 cells on 6-well plate (7×10^4 cells/well) were transfected with 1.0 μg of pRNA-U6.1/Shuttle vector, pRNA-U6.1/Shuttle-Bax siRNA, or both pRNA-U6.1/Shuttle-WSX-1 siRNA and pRNA-U6.1/Shuttle-CNTF-R siRNA (0.5 μg each). At 72 hrs after the transfection, the cells were added with an indicated amount of biotin-HN with or without unlabeled HN or HNA (100 μM) and subjected to an HN-binding assay based on immunofluorescence.
F11 cells (7×10^4/well in 6-well plates) were replated into 96-well plates (7×10^3 cells/well) at 24 hrs after transfection with indicated amounts of the plasmids encoding mycHis-WSX or V5-CNTF-R, and with PCAG-human gp130 if required. At 36 hrs after transfection, the cells were added with biotin-labeled HN or HNG of indicated concentrations in the presence or the absence of HNG (S14G-HN) or HNA (C8A-HN) of indicated concentrations (Hashimoto et al., 2001 a). After 6 hrs incubation, they were fixed with 4% paraformaldehyde in PBS for 30 min. After washing with PBS, cells were stained with FITC-conjugated avidin (Molecularprobe, Eugene, Oreg., USA). Immunofluorescence intensity was measured (excitation=485 nm, emission=535 nm) with a spectrofluorometer (Wallac1420 ARVOsx Multi Label Counter). Immunohistochemical analysis was done with a laser-scanning, confocal microscope LSM (Carl Zeiss, Germany).

[2] = test system: primary cortical neurons (PCNs); experiment: Aβ neurotoxicity in primary cortical neurons, WST-8 / Calcein / LDH; assay type: cell-based, mouse; conditions: 25 μM Aβ; for inhibition of neurotoxicity by Aβ: cytokine alone, physiological levels (up to 100 ng/ml)
Experimental: B) PCNs were incubated with 25 μM Aβ (upper) in the presence of 10 μg of recombinant soluble human gp130 (lower “+”) or BSA (lower “−”). Cell viability was determined by WST-8 assay (upper) or Calcein fluorescence assay (lower) at 72 hr after the onset of treatment with Aβ.
C) PCNs were incubated with 25 μM Aβ (1-43) in the presence of 1 μg of neutralizing anti-mouse gp130 antibody (RX435) or control IgG. Cell viability and cell mortality were determined by Calcein fluorescence (left panel) and LDH assays (right panel), respectively, at 72 hr after the onset of treatment with Aβ (1-43).
[…] At 72 hr after incubation, the cells were harvested for WST-8 assays or/and Calcein fluorescence assays to show cell viability.
B) The soluble IL-6 receptor-α (sIL-6R) or the soluble CNTF-R (100 ng/ml) were added to the cells as in the above A), followed by the stimulation with its ligand, IL-6 or CNTF (100 ng/ml), respectively to show the effects on the neuronal cell death due to Aβ. The right and left graphs show the cell viabilities determined by WST-8 assays and Calcein fluorescence assays, respectively.
C) The neutralizing antibodies (1 μg) for the mouse gp130, mouse LIFR, mouse IL-11R and rat CNTF-R were added as in the above A), and cell viability was determined by Calcein fluorescence assays after 72 hours.
WST-8 assay was performed at 72 hrs after the treatment.
The primary culture of mouse cortical neurons was prepared as described previously (Sudo et al., 2000). Briefly, primary cortical neurons, obtained from embryonic day 14 (E14) ICR mice were seeded in poly-L-lysine-coated 96 well plates (Sumitomo Bakelite) at 2.5 or 5.0×10^4 cells/well in Neuron Medium (Sumitomo Bakelite) (Hashimoto et al., 2003; Niikura et al., 2004). Purity of neurons by this method was >98%. After 3 days, the culture medium was replaced with DMEM with N2 supplement. On the fourth day in vitro, 25 μM of Aβ (1-42) was added in association with indicated concentrations of HN or cytokines in the presence or the absence of soluble cytokine receptors or neutralizing antibodies. At 72 hrs after the onset of treatment, cell viability was assessed by WST-8 assay and/or Calcein fluorescence assay and cell mortality was assessed by the Trypan blue exclusion assay and LDH assay (Hashimoto et al, 2000, 2001 a b, 2003).

- Kd [1]: 1 to 10 µM
Molecule: CC[C@H](C)[C@H](NC(=O)[C@H](CCC(=O)O)NC(=O)[C@H](CO)NC(=O)[C@@H](NC(=O)[C@H](CC(C)C)NC(=O)[C@H](CC(C)C)NC(=O)[C@H](CC(C)C)NC(=O)[C@H](CC(C)C)NC(=O)[C@H](CS)NC(=O)[C@H](CO)NC(=O)[C@H](Cc1ccccc1)NC(=O)CNC(=O)[C@H](CCCNC(=N)N)NC(=O)[C@@H]1CCCN1C(=O)[C@H](C)NC(=O)[C@@H](N)CCSC)[C@@H](C)O)C(=O)N[C@@H](CC(=O)O)C(=O)N[C@@H](CC(C)C)C(=O)N1CCC[C@H]1C(=O)N[C@H](C(=O)N[C@@H](CCCCN)C(=O)N[C@@H](CCCNC(=N)N)C(=O)N[C@@H](CCCNC(=N)N)C(=O)N[C@@H](C)C(=O)O)C(C)C [HN, Humanin]

B1: CT-1: mouse cardiotropin-1, recombinant cytokine (protein, UniProt Q60753 1-203, looked up)
Cardiotrophin-1: MSQREGSLEDHQTDSSISFLPHLEAKIRQTHNLARLLTKYAEQLLEEYVQQQGEPFGLPGFSPPRLPLAGLSGPAPSHAGLPVSERLRQDAAALSVLPALLDAVRRRQAELNPRAPRLLRSLEDAARQVRALGAAVETVLAALGAAARGPGPEPVTVATLFTANSTAGIFSAKVLGFHVCGLYGEWVSRTEGDLGQLVPGGVA
- inhibition of neurotoxicity by Aβ [2]: did not inhibit

B2: OSM: human OncostatinM, recombinant cytokine (protein, UniProt P13725 26-221, looked up)
Oncostatin-M: AAIGSCSKEYRVLLGQLQKQTDLMQDTSRLLDPYIRIQGLDVPKLREHCRERPGAFPSEETLRGLGRRGFLQTLNATLGCVLHRLADLEQRLPKAQDLERSGLNIEDLEKLQMARPNILGLRNNIYCMAQLLDNSDTAEPTKAGRGASQPPTPTPASDAFQRKLEGCRFLHGYHRFMHSVGRVFSKWGESPNRSRR
- inhibition of neurotoxicity by Aβ [2]: did not inhibit

B3: IL-11: recombinant cytokine of the IL-6 family (protein, UniProt P47873 22-199, looked up)
Interleukin-11: PGPPAGSPRVSSDPRADLDSAVLLTRSLLADTRQLAAQMRDKFPADGDHSLDSLPTLAMSAGTLGSLQLPGVLTRLRVDLMSYLRHVQWLRRAGGPSLKTLEPELGALQARLERLLRRLQLLMSRLALPQAAPDQPVIPLGPPASAWGSIRAAHAILGGLHLTLDWAVRGLLLLKTRL
- inhibition of neurotoxicity by Aβ [2]: did not inhibit

B4: recombinant soluble human gp130: recombinant soluble human gp130 consisting of the extracellular domain of human gp130; dominant-negative form (protein, UniProt P40189 23-619, looked up)
extracellular domain: ELLDPCGYISPESPVVQLHSNFTAVCVLKEKCMDYFHVNANYIVWKTNHFTIPKEQYTIINRTASSVTFTDIASLNIQLTCNILTFGQLEQNVYGITIISGLPPEKPKNLSCIVNEGKKMRCEWDGGRETHLETNFTLKSEWATHKFADCKAKRDTPTSCTVDYSTVYFVNIEVWVEAENALGKVTSDHINFDPVYKVKPNPPHNLSVINSEELSSILKLTWTNPSIKSVIILKYNIQYRTKDASTWSQIPPEDTASTRSSFTVQDLKPFTEYVFRIRCMKEDGKGYWSDWSEEASGITYEDRPSKAPSFWYKIDPSHTQGYRTVQLVWKTLPPFEANGKILDYEVTLTRWKSHLQNYTVNATKLTVNLTNDRYLATLTVRNLVGKSDAAVLTIPACDFQATHPVMDLKAFPKDNMLWVEWTTPRESVKKYILEWCVLSDKAPCITDWQQEDGTVHRTYLRGNLAESKCYLITVTPVYADGPGSPESIKAYLKQAPPSKGPTVRTKKVGKNEAVLEWDQLPVDVQNGFIRNYTIFYRTIIGNETAVNVDSSHTEYTLSSLTSDTLYMVRMAAYTDEGGKDGPEFTFTTPKFAQGEIE
modifications: extracellular domain
notes: recombinant soluble human gp130 consisting of the extracellular domain of human gp130; dominant-negative form
- effect on HN-mediated neuroprotection ([2]; PCNs): complete suppression
